Tests used:
Details in all cases: tags: pSG5-hRev-erbα, TnT T7 rabbit reticulocyte lysate; label: 32P
[1] = target: T1, Rev-erb alpha (NR1D1) (Homo sapiens, UniProt P20393 P20393:1-614); experiment: EMSA; no significant retardation
T1 sequence: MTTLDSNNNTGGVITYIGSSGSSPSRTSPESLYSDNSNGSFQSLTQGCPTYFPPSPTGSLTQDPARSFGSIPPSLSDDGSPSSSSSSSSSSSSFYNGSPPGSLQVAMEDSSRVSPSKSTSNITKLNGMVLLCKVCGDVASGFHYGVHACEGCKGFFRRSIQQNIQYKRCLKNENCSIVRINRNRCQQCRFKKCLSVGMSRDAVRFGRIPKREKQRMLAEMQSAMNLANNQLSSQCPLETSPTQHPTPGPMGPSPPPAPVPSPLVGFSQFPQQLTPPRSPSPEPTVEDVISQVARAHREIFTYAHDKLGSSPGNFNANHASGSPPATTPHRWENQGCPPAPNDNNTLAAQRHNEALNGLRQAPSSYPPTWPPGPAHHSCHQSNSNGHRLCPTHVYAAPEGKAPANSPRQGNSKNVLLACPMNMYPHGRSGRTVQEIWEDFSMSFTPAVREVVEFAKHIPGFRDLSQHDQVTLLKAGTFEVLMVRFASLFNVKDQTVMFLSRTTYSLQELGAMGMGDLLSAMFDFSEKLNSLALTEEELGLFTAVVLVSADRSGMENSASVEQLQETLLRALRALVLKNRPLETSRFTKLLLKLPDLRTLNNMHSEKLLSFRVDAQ

[2] = target: T1, Rev-erb alpha (NR1D1); experiment: EMSA; data not illustrated
[3] = target: T1, Rev-erb alpha (NR1D1); experiment: EMSA; two complexes, monomer and dimer; 10 mM Hepes, 80 mM KCl, polydIdC

B1: C3P-DR2 (-104/-72) (dsDNA)
DNA 1: GATCCTCATCTCCACTGGTCAGCAGGTGACCTTTGC
DNA 2: GATCGGCAAAGGTCACCTGCTGACCAGTGGAGATGAG
B1: no binding [1].

B2: HCIII-TaTaKO (dsDNA)
DNA 1: GATCGATATAAAACAGGCAGGAACCCTC
DNA 2: GATCGAGGGTTCCTGCCTGTTTTATATC
B2: no binding [2].

B3: Rev-DR2 (dsDNA)
DNA 1: GATCCGGAAAAGTGTGTCACTGGGGCACGA
DNA 2: GATCTCGTGCCCCAGTGACACACTTTTCCG
B3: binds [3].

Source: US7691628, “Use of Rev-erb family of receptors in screening” (Merck Patent GmbH)
